Measured values from patent US20230312682A1 (published 2023).

Legend:
[1] = molecular target: T1, CD47 on the surfaces of cells (human, UniProt Q08722 19-323); assay: cell-based or functional assay
CD47-His [2] = molecular target: T2, CD47-His (human, UniProt Q08722 19-139); assay: SPR (Biacore 8K), captured on Protein A chip, CD47-His as analyte
T2 construct: also called Human CD47-His; SIRPα-Fc fusion protein's ligand CD47-His
Method: Biacore is a method commonly used for molecular interaction analysis based on the principle of surface plasmon resonance (SPR for short). Here, Biacore was used to determine the affinity of the SIRP mutants described above and anti-CD47 antibodies for the extracellular end of CD47. Experimental method and procedure: The SIRP mutant or anti-CD47 antibodies were diluted to a concentration of 1 μg/mL with HBS-EP⁺ buffer (pH 7.4, purchased from Cytiva, catalog No. BR-1006-69). […] A 6 M solution of guanidine hydrochloride was used as a regeneration buffer. Sensor Chip Protein A (purchased from Cytiva, catalog No. 29-1275-55) was used to capture antibody on Biacore 8K (purchased from GE Healthcare). Then CD47-His was used as an analyte and allowed to flow over the chip, and an association-dissociation curve was obtained. After the chip was regenerated with the regeneration buffer, another cycle was carried out. The data were analyzed using Biacore 8K Evaluation Software.

CD47-His [3] = molecular target: T2, CD47-His; assay: ELISA, plate coated with CD47-His, anti-human Fc-HRP detection
Method: Method: Human CD47-His prepared in Example 1.3 was diluted to 100 ng/mL with a sodium carbonate buffer, and then the dilution was added to a microplate at 100 μL per well. The plate was incubated at room temperature for 2 h and washed with PBST. The plate was blocked by adding PBST containing 1% bovine serum albumin (BSA) to each well and incubated at room temperature for 1 h. The plate was washed twice with PBST, and serially diluted antibodies or fusion proteins were added. The plate was incubated for half an hour and washed twice with PBST. A properly diluted HRP-labeled goat anti-human (Fc-Specific) secondary antibody was added, and the plate was incubated for half an hour. After the plate was washed, a color developing solution was added for color development, and the color development was terminated with a stop solution. The OD450 was read using on a microplate reader. The data were analyzed in GraphPad Prism 6 and plotted, and EC₅₀ was calculated.

[4] = molecular target: T1, CD47 on the surfaces of cells; assay: flow cytometry on Daudi cells, FITC anti-human Fc
Method: The binding capacity of the prepared SIRP-Fc-IgG1 mutants to CD47 on the surfaces of Daudi cells (human lymphoma cells) was determined by flow cytometry. Experimental procedure: After being counted, Daudi cells were inoculated into a 96-well round-bottom culture plate at 2E5 cells/150 μL by using a PBS solution containing 1% bovine serum albumin (BSA). To the 96-well plate described above were added 50 μL of SIRPα-Fc fusion protein mutants serially diluted with the PBS solution. The plate was incubated at room temperature for 1 h and then centrifuged, and the supernatant was discarded. Then the cells were washed twice with PBS. An FITC-labeled goat anti-human (Fc-Specific) antibody (1:1000 diluted with PBS containing 1% BSA) was added. The plate was incubated at room temperature for half an hour and centrifuged, and the cells were washed and then tested for mean fluorescence intensity (MFI) in the FITC channel on a flow cytometer (CytoFLEX Cytometer System, purchased from Beckman Coulter). The experimental data were processed using the software provided with the flow cytometer, and the mean fluorescence intensity was calculated. The data were analyzed and plotted in GraphPad Prism 6, and EC₅₀ was calculated.

[5] = molecular target: T1, CD47 on the surfaces of cells; assay: cell-based or functional assay; remark: listed apart in the source

ADCP of Daudi cells by human macrophages, EC50 [1]: 19 pM
ADCP of Daudi cells by human macrophages, Top (highest degree of ADCP by curve fitting) [1]: 12.5
Kd (CD47-His [2]): 104 pM
koff (CD47-His [2]): 0.00012 s⁻¹
kon (CD47-His [2]): 1.16e+06 M⁻¹ s⁻¹
EC50 (CD47-His [3]): 55.8 pM
height of top plateau (CD47-His [3]): 0.795 OD450
EC50 [4]: 189 pM
height of top plateau [4]: 3070 MFI
ADCC on Daudi cells with human PBMCs, EC50 [5]: 197 pM
ADCC on Daudi cells with human PBMCs, Top (highest degree of ADCC by curve fitting) [5]: 29
B1: anti-CD47B-Hu-IgG1 (antibody, V domains shown)
VH: QVQLVQSGAEVKKPGASVKVSCKASGYTFANHVIHWVRQAPGQGLEWMGYIYPYNDGTKYNEKFKDRVTLTSDKSTSTVYMELSSLRSEDTAVYYCARGGYYTYDDWGQGTLVTVSS
VL: DVVMTQSPLSLPVTLGQPASISCRSSQSLVHSNGKTYLHWYQQRPGQSPRLLIYKVSNRFSGVPDRFSGSGSGTDFTLKISRVEAEDVGVYYCSQSTHVPYTFGQGTKVEIKR
notes: Human IgG1 / kappa
